This note sets out measurements from patent US20250171534A1 (D2M BIOTHERAPEUTICS, published 2025).

As a reminder, the EC50 is the concentration at which the effect is half-maximal. The EC50 (read off the curve) is the concentration that produces a half-maximal response. Read a low EC50 (read off the curve) as greater potency.

For experiment [1], the target named is T1, LILRB3 expressed on cells (human, UniProt O75022 24-631).
T1 construct: whole, on cells; Expressed with a GFP tag from the bought plasmid; also called human LILRB3; CHO-LILRB3
The experiment in a line: flow cytometry on 293T cells transiently expressing LILRB3, APC anti-human Fc; gMFI as fold to IgG staining. Background: A flow cytometer gives signals particle by particle.

In experiment [2] the target is T2, LILRB5 expressed on 293T cells (UniProt O75023 24-590, limits assumed).
T2 construct: whole, on cells; GFP-tagged, transient
Description: flow cytometry on 293T cells transiently expressing LILRB5, APC anti-human Fc; gMFI as fold to IgG staining.

Experiment [3] addresses T3, LILRB1-ECD-HIS (SinoBiological Cat #: 16014-H02H) (human, UniProt Q8NHL6 24-461).
T3 construct: Bought protein; also called monomeric antigen LILRB1-ECD-HIS; not shown: His tag
The experiment in a line: BLI epitope binning (Gator).

Experiment [4] concerns the target T4, LILRA3 expressed on 293T cells (UniProt Q8N6C8 24-439, limits assumed).
T4 construct: whole, on cells; GFP-tagged, transient
Description: flow cytometry on 293T cells transiently expressing LILRA3, APC anti-human Fc; gMFI as fold to IgG staining.

Experiment [5] concerns the target T5, LILRB2-ECD-HIS (SinoBiological Cat #: 14132-H02H) (human, UniProt Q8N423 22-460).
T5 construct: Bought protein; also called monomeric antigen LILRB2-ECD-HIS; not shown: His tag
Description: BLI epitope binning (Gator), monomeric antigen.

Experiment [6] concerns the target T6, human LILRB1 expressed on cells (human, UniProt Q8NHL6 24-650).
T6 construct: In 293T cells it was expressed from pCMV3-LILRB1-GFP; also called CHO-LILRB1; Jurkat-LILRB1
The experiment in a line: flow cytometry on 293T cells transiently expressing LILRB1, APC anti-human Fc; gMFI as fold to IgG staining.

In experiment [7] the target is T7, LILRA6 expressed on cells (human, UniProt Q6PI73 24-481).
T7 construct: whole, on cells; GFP-tagged; also called human LILRA6; CHO-LILRA6
Description: flow cytometry on 293T cells transiently expressing LILRA6, APC anti-human Fc; gMFI as fold to IgG staining.

Experiment [8] has as its target T8, human LILRB2 expressed on cells (human, UniProt Q8N423 22-597).
T8 construct: In 293T cells it was expressed from pCMV3-LILRB2-GFP; also called CHO-LILRB2; Jurkat-LILRB2
Description: flow cytometry, CHO-LILRB2 cells.

In experiment [9] the target is T8, human LILRB2 expressed on cells. Description: flow cytometry, CHO-LILRB2 cells. This is another data set of the same source.
The target of experiment [10] is T9, LILRA5 expressed on 293T cells (UniProt A6NI73 42-299, limits assumed).
T9 construct: whole, on cells; GFP-tagged, transient
The experiment in a line: flow cytometry on 293T cells transiently expressing LILRA5, antibody 5 µg/mL, APC anti-human Fc; gMFI as fold to IgG staining.

For experiment [11], the target named is T10, LILRA2 expressed on 293T cells (UniProt Q8N149 24-483, limits assumed).
T10 construct: whole, on cells; GFP-tagged, transient
Description: flow cytometry on 293T cells transiently expressing LILRA2, APC anti-human Fc; gMFI as fold to IgG staining.

T8 sequence (Q8N423 other isoform, or with tags, fused parts or gaps limits assumed): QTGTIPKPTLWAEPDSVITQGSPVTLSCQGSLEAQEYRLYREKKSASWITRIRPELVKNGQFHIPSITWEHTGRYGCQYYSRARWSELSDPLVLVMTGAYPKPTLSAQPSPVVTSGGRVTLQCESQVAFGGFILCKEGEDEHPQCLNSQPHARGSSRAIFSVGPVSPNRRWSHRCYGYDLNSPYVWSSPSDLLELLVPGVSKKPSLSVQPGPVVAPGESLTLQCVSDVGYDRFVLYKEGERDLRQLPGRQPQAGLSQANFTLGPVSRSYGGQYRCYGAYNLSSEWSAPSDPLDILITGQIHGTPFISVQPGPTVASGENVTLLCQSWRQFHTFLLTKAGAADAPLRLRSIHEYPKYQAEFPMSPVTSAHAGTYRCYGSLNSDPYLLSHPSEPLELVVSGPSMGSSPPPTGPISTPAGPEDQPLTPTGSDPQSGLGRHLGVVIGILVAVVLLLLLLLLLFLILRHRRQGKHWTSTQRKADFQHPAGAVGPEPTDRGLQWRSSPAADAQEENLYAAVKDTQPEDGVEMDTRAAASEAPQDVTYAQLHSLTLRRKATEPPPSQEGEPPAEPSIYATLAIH
T3 sequence (Q8NHL6 other isoform, or with tags, fused parts or gaps H02H H02H): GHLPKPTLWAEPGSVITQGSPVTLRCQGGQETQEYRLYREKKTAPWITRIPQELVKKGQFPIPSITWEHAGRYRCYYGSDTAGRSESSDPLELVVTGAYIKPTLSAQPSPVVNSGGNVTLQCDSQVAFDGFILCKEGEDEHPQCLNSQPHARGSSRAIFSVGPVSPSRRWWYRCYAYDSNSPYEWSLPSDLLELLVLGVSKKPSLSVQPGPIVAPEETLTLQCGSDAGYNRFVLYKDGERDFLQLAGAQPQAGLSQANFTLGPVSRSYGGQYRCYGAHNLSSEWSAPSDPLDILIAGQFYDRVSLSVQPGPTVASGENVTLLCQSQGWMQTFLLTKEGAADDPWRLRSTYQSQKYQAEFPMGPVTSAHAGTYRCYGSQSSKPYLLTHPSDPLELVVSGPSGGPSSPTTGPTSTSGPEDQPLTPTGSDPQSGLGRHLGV
T2 sequence (O75023 24-590 limits assumed): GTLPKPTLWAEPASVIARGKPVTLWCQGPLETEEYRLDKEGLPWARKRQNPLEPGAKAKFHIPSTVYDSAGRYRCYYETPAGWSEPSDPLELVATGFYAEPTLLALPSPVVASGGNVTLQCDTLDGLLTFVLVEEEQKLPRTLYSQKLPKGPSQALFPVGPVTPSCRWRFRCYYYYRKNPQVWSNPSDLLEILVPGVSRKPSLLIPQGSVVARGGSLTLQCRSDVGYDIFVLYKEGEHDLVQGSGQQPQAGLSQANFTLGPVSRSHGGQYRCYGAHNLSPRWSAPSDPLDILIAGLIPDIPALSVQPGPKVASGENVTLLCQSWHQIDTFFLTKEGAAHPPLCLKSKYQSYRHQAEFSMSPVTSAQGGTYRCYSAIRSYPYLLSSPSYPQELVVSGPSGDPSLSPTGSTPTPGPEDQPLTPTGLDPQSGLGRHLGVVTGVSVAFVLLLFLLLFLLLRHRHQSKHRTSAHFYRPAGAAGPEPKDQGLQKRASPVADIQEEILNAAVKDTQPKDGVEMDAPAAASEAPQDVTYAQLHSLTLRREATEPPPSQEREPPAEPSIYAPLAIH
T4 sequence (Q8N6C8 24-439 limits assumed): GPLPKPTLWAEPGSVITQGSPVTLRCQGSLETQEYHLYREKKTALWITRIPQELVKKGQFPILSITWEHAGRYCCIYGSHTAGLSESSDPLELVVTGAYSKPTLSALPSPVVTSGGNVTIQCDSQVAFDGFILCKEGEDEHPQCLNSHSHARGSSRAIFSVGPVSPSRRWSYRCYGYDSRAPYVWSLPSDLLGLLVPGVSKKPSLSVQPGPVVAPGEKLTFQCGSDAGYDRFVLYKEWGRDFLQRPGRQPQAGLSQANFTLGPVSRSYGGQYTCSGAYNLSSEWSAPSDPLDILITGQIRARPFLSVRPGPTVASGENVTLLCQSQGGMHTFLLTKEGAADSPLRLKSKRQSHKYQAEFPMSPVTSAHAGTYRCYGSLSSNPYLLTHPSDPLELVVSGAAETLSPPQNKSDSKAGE
T9 sequence (A6NI73 42-299 limits assumed): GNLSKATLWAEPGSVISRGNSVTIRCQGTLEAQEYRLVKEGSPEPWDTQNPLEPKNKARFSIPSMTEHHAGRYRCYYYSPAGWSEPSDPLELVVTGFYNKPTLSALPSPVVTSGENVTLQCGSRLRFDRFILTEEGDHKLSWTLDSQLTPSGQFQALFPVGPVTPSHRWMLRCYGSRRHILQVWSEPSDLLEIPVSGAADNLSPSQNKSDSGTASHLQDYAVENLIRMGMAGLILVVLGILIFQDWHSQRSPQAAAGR
T6 sequence (Q8NHL6 other isoform, or with tags, fused parts or gaps limits assumed): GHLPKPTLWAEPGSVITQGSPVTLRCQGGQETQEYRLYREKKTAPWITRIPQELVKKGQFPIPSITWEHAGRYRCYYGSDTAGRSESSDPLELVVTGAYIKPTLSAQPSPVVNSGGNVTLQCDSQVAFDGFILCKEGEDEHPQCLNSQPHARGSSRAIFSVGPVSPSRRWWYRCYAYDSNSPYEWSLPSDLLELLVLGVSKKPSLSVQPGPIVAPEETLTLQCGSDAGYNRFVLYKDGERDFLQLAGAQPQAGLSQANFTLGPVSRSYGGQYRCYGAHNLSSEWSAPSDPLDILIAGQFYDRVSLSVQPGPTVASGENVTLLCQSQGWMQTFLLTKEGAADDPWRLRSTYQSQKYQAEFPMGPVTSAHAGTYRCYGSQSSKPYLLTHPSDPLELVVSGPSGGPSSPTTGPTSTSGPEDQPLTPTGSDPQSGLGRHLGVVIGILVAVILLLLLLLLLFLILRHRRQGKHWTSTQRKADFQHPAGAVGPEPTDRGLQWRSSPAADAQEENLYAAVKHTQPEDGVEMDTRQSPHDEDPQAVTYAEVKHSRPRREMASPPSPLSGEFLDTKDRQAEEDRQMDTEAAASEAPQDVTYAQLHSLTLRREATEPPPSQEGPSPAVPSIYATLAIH
T10 sequence (Q8N149 24-483 limits assumed): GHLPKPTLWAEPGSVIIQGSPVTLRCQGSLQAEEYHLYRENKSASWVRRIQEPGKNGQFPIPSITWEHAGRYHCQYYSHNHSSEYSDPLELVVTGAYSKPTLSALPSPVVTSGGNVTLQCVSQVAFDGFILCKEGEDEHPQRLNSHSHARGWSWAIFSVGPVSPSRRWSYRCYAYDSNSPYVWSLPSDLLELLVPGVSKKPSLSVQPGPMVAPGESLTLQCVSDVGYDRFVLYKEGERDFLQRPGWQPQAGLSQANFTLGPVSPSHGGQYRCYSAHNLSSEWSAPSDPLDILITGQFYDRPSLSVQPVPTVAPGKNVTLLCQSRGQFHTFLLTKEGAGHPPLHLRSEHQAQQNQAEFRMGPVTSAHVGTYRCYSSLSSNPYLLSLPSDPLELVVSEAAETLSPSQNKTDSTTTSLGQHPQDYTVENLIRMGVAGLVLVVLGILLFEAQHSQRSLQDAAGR
T7 sequence (Q6PI73 24-481): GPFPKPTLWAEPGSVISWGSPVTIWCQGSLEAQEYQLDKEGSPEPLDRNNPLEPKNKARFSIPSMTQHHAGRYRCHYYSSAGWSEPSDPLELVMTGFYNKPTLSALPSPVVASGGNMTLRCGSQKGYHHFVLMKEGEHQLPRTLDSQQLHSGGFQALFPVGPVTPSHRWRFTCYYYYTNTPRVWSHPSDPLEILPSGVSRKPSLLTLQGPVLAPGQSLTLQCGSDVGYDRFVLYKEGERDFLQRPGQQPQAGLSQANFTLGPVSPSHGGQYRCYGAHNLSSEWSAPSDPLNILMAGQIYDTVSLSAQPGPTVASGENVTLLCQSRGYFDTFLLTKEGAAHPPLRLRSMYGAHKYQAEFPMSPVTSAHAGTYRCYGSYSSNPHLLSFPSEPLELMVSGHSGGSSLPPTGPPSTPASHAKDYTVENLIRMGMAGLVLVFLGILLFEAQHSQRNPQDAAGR
T5 sequence (Q8N423 other isoform, or with tags, fused parts or gaps H02H H02H): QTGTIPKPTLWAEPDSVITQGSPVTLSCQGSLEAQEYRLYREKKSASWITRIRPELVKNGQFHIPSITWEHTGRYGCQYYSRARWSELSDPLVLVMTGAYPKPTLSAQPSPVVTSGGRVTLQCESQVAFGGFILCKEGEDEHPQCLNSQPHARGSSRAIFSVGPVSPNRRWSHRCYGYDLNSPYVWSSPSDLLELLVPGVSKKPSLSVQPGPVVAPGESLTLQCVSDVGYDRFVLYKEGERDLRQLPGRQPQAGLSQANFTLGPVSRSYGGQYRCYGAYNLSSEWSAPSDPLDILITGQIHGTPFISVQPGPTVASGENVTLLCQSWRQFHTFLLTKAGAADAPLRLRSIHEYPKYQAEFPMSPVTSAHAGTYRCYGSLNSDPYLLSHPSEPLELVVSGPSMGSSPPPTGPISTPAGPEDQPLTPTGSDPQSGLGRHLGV

B1: Anti-LILRB2 antibody 1E1(QE) (antibody, human IgG4 S228P, lambda, V domains shown)
VH: EVQLQQWGAGLLKPSETLSLTCAVYGGSFSGYYWSWIRQPPGKGLEWIGEINHSGSTNYNPSLKSRVTISVDTSKNQFSLKLSSVTAADTAVYYCARLPTRWVTTRYFDLWGRGTLVTVSS
VL: ESVLTQPPSVSGAPGQRVTISCTGSSSNIGAGYDVHWYQQLPGTAPKLLIYGNSNRPSGVPDRFSVSKSGASASLAITGLQAEDEADYYCQSFDNSLSAYVFGGGTQLTVLG
As to B1, the binding result is reported as “no binding (tested: 5 µg/mL)” in [1]; “no binding (tested: 5 µg/mL)” in experiment [2]; “no binding” in experiment [3]; “no binding (tested: 5 µg/mL)” in experiment [4]; “binds” in experiment [5]; “no binding (tested: 5 µg/mL)” in experiment [6]. The binding result in experiment [7] was “no binding (tested: 5 µg/mL)”; in experiment [10] it was “binds”; in [11] it was “no binding (tested: 5 µg/mL)”. Also, a half-maximal response in experiment [8] (EC50) required 0.042 µg/mL. In [8], the “gMFI (max)” value turned out to be 11800. The concentration for a half-maximal effect (EC50 (read off the curve)) in experiment [9] is around 0.04 µg/mL.
